Reference: PMC7090010

Assays:
Settings in all cases: scale: % of the maximum spliced product formation
[1] = target: split mCherry-split intein C-terminal chimeric protein, gp41-1 intein split at site S2
[2] = target: split mCherry-split intein C-terminal chimeric protein, gp41-8 intein split at site S2
[3] = target: split mCherry-split intein C-terminal chimeric protein, SspGyrB intein split at site S2
[4] = target: split mCherry-split intein C-terminal chimeric protein, NrdJ-1 intein split at site S2
[5] = target: split mCherry-split intein C-terminal chimeric protein, IMPDH-1 intein split at site S2

Q: “split mCherry-split intein N-terminal chimeric protein, gp41-1 intein split at site S2 (domain or fragment)” was tested. Which in vitro trans-splicing of mixed lysates (room temperature, 100 mM Tris-HCl pH 9.0, 100 mM NaCl, 2 mM DTT): spliced mCherry by Western blot, share of the maximum spliced product within 1 h [1] did it give?
A: > 75

Q: Which in vitro trans-splicing of mixed lysates (room temperature, 100 mM Tris-HCl pH 9.0, 100 mM NaCl, 2 mM DTT): spliced mCherry by Western blot, share of the maximum spliced product within 1 h [2] does the source give for “split mCherry-split intein N-terminal chimeric protein, gp41-8 intein split at site S2 (domain or fragment)” here?
A: > 75

Q: For “split mCherry-split intein N-terminal chimeric protein, SspGyrB intein split at site S2 (domain or fragment)”, which in vitro trans-splicing of mixed lysates (room temperature, 100 mM Tris-HCl pH 9.0, 100 mM NaCl, 2 mM DTT): spliced mCherry by Western blot, share of the maximum spliced product within 1 h [3] is on record?
A: > 75

Q: How did the in vitro trans-splicing of mixed lysates (room temperature, 100 mM Tris-HCl pH 9.0, 100 mM NaCl, 2 mM DTT): spliced mCherry by Western blot, share of the maximum spliced product within 1 h [4] turn out when “split mCherry-split intein N-terminal chimeric protein, NrdJ-1 intein split at site S2 (domain or fragment)” was run?
A: > 75

Q: How did the in vitro trans-splicing of mixed lysates (room temperature, 100 mM Tris-HCl pH 9.0, 100 mM NaCl, 2 mM DTT): spliced mCherry by Western blot, share of the maximum spliced product within 1 h [5] turn out when “split mCherry-split intein N-terminal chimeric protein, IMPDH-1 intein split at site S2 (domain or fragment)” was run?
A: > 75
